Test results published in patent publication US20060029546A1 (DECODE GENETICS, published 2006).

Key:
[1] = target: T1, ErbB4 D843A bait (cytoplasmic domain, mutation in the catalytic site) (human, UniProt Q15303 676-1308); test: yeast two-hybrid growth assay
T1 construct: not shown: fusion partner encoded by the bait vector
Source text: (§1) To characterize components of the NRG1 signaling pathway downstream of the ErbB4 receptor tyrosine kinase, the predominant neuronal receptor for NRG1, the cytoplasmic domain of ErbB4 was used as a bait in a yeast two-hybrid interaction screen. The ErbB4 bait was created by cloning the entire cytoplasmic domain into the vector pGBKT7 (Clontech, Palo Alto, Calif.) using homologous recombination in the yeast strain AH109 (Clontech, Palo Alto, Calif.). Liner vector and the cytoplasmic fragment of ErbB4 were transfected into the yeast strain using the lithium acetate (LiAc) method and plated onto […] negative selection media plates. Plasmid DNA was isolated from positive colonies and the presence of ErbB4 was verified by sequencing.
(§2) The ErbB4 bait was capable of tyrosine auto-phosphorylation in yeast cells. Tyrosine phosphorylation was absent from ErbB4 baits which contained mutations in the ATP binding site (K751A) or the catalytic site (D843A). Homo sapiens random prime hippocampus cDNA library was created using the ZAP-cDNA Gigapack III Gold Cloning Kit (Stratagene) and transformed into yeast using Li Acetate. Screening of a human hippocampus cDNA library yielded a partial cDNA clone comprising the SH2 and SH3 domains of Fyn (amino acids 60-252 of SEQ ID NO: 3). SH2 domains are protein modules able to bind phosphorylated tyrosine residues. […]

[2] = target: T2, ErbB4 K751A bait (cytoplasmic domain, mutation in the ATP binding site) (human, UniProt Q15303 676-1308); test: yeast two-hybrid growth assay
T2 construct: not shown: fusion partner encoded by the bait vector
Source text: as §1, §2

binding result [1]: no binding
binding result [2]: no binding
B1: partial cDNA clone comprising the SH2 and SH3 domains of Fyn (amino acids 60-252) (enzyme)
chain: not shown
notes: The clone came from a human hippocampus cDNA library; also called Fyn clone; p59Fyn; not shown: fusion partner of the yeast two-hybrid library (prey) vector
